Values of other authors as cited in paper PMC4276913.
pKd: −log10 of the molar value.

Target: Ubc13 (Homo sapiens) (UniProt P61088)
UniProt P61088, sequence (P61088 whole entry): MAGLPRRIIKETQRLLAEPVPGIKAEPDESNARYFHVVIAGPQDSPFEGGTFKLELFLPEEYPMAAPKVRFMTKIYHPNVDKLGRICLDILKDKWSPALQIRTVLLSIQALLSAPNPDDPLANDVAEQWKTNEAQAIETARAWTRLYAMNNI

## Mms2 (from UniProt Q15819)
  pKd: 7.31
